Laboratory results taken from CN113929780A.
Substitutions are numbered along the chain they refer to. Values belong to the binder of their own block, whether it stands above or below them.

Tests used:
[1] = molecular target: 人Claudin18.2 (human Claudin18.2, 密蛋白18.2) (human) (UniProt P56856); test: relative binding activity against the control antibody, after strong-acid stress
[2] = molecular target: 人Claudin18.2 (human Claudin18.2, 密蛋白18.2) (human) (UniProt P56856); test: relative binding activity against the control antibody, after repeated freezing and thawing

相对结合活性 (relative to the control antibody BY0-0) [1]: 80%
B1: BY6-3 (antibody, IgG1, V domains shown)
VH: QVQLVQSGSELKKPGASVKISCKASGYSFTNYGMNWVRQAPGQGLKWMGWINTNTGEPTYAEEFKGRFVFSLDTSVSTAYLQISSLKAEDTAVYYCARLGFGNAMDYWGQGTLVTVSS
VL: DIVMTQSPDSLAVSLGERATMNCKSSQTLLNSGNQKNYLTWYQQKPGQPPKLLIYWATTRESGVPDRFSGSGSGTDFTLTISSLQAEDVAVYYCQNDYTYPLTFGAGTKLEIK

相对结合活性 (relative to the control antibody BY0-0) [1]: 80%
B2: BY6-4 (antibody, IgG1, V domains shown)
VH: B1 VH
VL: B1 VL with Q35N, T99S

相对结合活性 (relative to the control antibody BY0-0) [2]: > 80%
B3: BY6-1 (antibody, IgG1, V domains shown)
VH: B1 VH
VL: B1 VL with T99S
